Laboratory results as given in PMC6737903, “The Hox gene Abdominal-B uses Doublesex^F as a cofactor to promote neuroblast apoptosis in the Drosophila central nervous system” (Development (Cambridge, England), 2019).

Target: T1, His-Dsx^CR (Dsx common region, aa residues 1-397) (Drosophila, UniProt P23023 1-397)
T1 construct: Doublesex (Dsx), Drosophila, region common to the male and female isoforms, aa residues 1-397; source: bacterially expressed (0.5 mM IPTG, 18°C, 2 h), cell lysate for the pulldown; purified and dialyzed for EMSA; not shown: His tag, N-terminal, kept
T1 sequence (P23023 1-397): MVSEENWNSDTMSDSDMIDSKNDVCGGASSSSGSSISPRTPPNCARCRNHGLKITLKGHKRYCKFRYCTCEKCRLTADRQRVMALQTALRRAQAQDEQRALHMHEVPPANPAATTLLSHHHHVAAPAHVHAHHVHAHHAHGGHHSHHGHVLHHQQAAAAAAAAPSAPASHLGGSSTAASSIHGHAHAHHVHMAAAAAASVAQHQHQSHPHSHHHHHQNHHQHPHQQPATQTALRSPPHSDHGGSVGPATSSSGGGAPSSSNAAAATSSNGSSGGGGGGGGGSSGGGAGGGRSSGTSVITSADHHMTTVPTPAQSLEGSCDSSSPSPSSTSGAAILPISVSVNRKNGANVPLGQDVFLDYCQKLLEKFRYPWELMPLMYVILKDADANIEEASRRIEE
Experiment: pull-down; GST pulldown: GST-tagged AbdB proteins or GST alone as bait; bacterially expressed His-tagged Dsx proteins as input cell lysates; Western blot; three repetitions
Conditions: one partner purified

binding result: binds
B1: GST-AbdB-N (truncated version of AbdB-r, aa residues 89-270) (domain or fragment)
chain: not shown
notes: Abdominal-B (AbdB), Drosophila, regulatory isoform AbdB-r, aa residues 89-270; printed length of AbdB-r by the limits: 270; numbers count on: the AbdB-r isoform; The results say that AbdB-N lacks the first 89 amino acids; the methods give aa residues 89-270; also called GST-tagged AbdB-N; source: bacterially expressed (0.5 mM IPTG, 18°C, 2 h); GST-tagged bait in the pulldown; used as protein (50 …)
